Usually Kd stands for the concentration at which binding is half-saturated. Broadly, the stoichiometry N is the number of molecules, sites or subunits per partner or assembly.

One data set addresses T1, human EPDR1 (Homo sapiens, UniProt Q9UM22).
T1 construct: residues 38-224 without native signal peptide; N-terminal His8 tag, cleavage not mentioned; codon-optimised synthetic gene, pAcGP67A; secreted from Sf9 insect cells; homodimer in crystal; three intramolecular disulfides
T1 sequence (Q9UM22 38-224): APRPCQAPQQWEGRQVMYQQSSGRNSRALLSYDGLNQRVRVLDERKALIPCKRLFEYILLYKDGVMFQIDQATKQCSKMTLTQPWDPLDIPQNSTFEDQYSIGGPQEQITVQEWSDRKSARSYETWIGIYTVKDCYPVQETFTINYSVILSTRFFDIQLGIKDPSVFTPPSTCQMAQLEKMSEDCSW
Briefly: fluorescence increase titration (ex […] nm, em […] nm). The data set is classed as binding.

Data set [1] deals with the molecule itself. Description: crystal structure; frog EPDR1 crystals, hanging drop 22 C, 15-20% PEG 8000, 0.2 M calcium acetate, 0.1 M sodium cacodylate pH 6.5; space group P6(5)22, one molecule in the asymmetric unit, dimer with a crystallographic symmetry mate.
Data set [2] deals with the molecule itself. Briefly: crystal structure; human EPDR1 crystals, hanging drop 22 C, 15-20% PEG 3350 with 0.1 M citric acid pH 4.5 or 0.2 M NaCl, 0.1 M bis-Tris pH 5.5; space group P4(3), four molecules in the asymmetric unit; interfaces judged by PISA.
Data set [3] concerns the molecule itself. Briefly: crystal structure; mouse EPDR1 crystals, hanging drop 22 C, 0.5-1.0 M lithium sulfate, 0.5-1.0 M ammonium sulfate, 0.1 M sodium citrate pH 5.6; space group P2(1), four molecules in the asymmetric unit.

As to `O=S(=O)(O)c1cccc2cccc(Nc3ccccc3)c12` [1,8-ANS, 1-anilinonaphthalene-8-sulfonic acid], the Kd at human EPDR1 is ~14 µM.

B1: frog EPDR1 (Xenopus tropicalis, residues 38-220, N-terminal His8 tag) (natural protein, UniProt F6VRB7 38-220, looked up)
chain: TPCEAPLQWEGRIVLYDHNTGKNTRATVTYDAILQRIRILEEKKSFVPCKRFFEYIFLYQEAVMFQIEQVTKICSKNTLTEPWDPYDIPENSTYEDQYYIGGPGDQIPVQEWSDRKPARKYETWVGVYTVKDCYPVQETYTKNDSMTTSTRFFDIKLGISDPSVFNPPSTCEAAQPLLMSGDC
modifications: glycosylation at the two predicted Asn sites only slightly perceivable, too disordered to be modeled
notes: frog (Xenopus tropicalis) EPDR1, NCBI XP_002939463, residues 38-220, without the native N-terminal signal peptide; Three intramolecular disulfide bonds; source: Sf9 insect cells (baculovirus, pAcGP67A, secreted), purified (Ni-NTA, size-exclusion chromatography)
With B1, in data set [1], the “stoichiometry N” value stood at 2.

B2: human EPDR1 (residues 38-224, N-terminal His8 tag) (natural protein, UniProt Q9UM22 38-224, looked up)
chain: T1 sequence (Q9UM22 38-224)
modifications: glycosylation at the two predicted Asn sites only slightly perceivable, too disordered to be modeled
notes: human EPDR1, UniProt Q9UM22, residues 38-224, without the native N-terminal signal peptide; Three intramolecular disulfide bonds (Cys42-Cys172, Cys88-Cys222, Cys113-Cys210); also called mammalian ependymin-related protein 1; MERP1; source: Sf9 insect cells (baculovirus, pAcGP67A, secreted), purified (Ni-NTA, size-exclusion chromatography)
For B2, the “stoichiometry N” value in data set [2] is 2.

B3: mouse EPDR1 (residues 38-224, N-terminal His8 tag) (natural protein, UniProt Q99M71 38-224, looked up)
chain: TPQPCQAPQQWEGRQVLYQQSSGHNNRALVSYDGLNQRVRVLDERKALIPCKRLFEYILLYKEGVMFQIEQATKQCAKIPLVESWDPLDIPQNSTFEDQYSIGGPQEQILVQEWSDRRTARSYETWIGVYTAKDCYPVQETFIRNYTVVMSTRFFDVQLGIKDPSVFTPPSTCQAAQPEKMSDGCSL
modifications: N-glycosylation at Asn130 (one NAG) and at Asn182 (two NAGs and one fucose)
notes: mouse (Mus musculus) EPDR1, UniProt Q99M71, residues 38-224, without the native N-terminal signal peptide; Three intramolecular disulfide bonds; also called MERP1; source: Sf9 insect cells (baculovirus, pAcGP67A, secreted), purified (Ni-NTA, size-exclusion chromatography)
Consider B3, for which, in data set [3], the “stoichiometry N” value came out at 2.

(Values after PMC6608618, “Structures of three ependymin-related proteins suggest their function as a hydrophobic molecule binder” (IUCrJ, 2019).)
